Measured values reported in US20180031580A1, “USE OF IGF-1 AS PROGNOSTIC FACTOR IN CALCIFICATION OF AORTIC VALVES” (THE ASAN FOUNDATION, priority 2015, published 2018).

Assays:
ERK or Akt = experiment: Western blot of phosphorylation of intracellular signaling proteins ERK or Akt in aortic valve vascular smooth muscle tissue; format: in vivo; conditions: eNOS-deficient mice treated with IGF-1 and DPP-4, 0, 5, 15 or 30 minutes; FIG. 2b
Description: Further, in order to confirm whether the activation level of the protein involved in intracellular signaling was changed by osteocytogenesis according to DPP-4, the eNOS-deficient mice were treated with IGF-1 alone for 0, 5, 15 or 30 minutes, or treated with DPP-4 and IGF-1 at the same time, and then, the aortic valve vascular smooth muscle tissue was extracted from these mice. Then, a phosphorylation level of ERK or Akt which is a protein involved in intracellular signaling expressed in the extracted tissues was compared by western blot analysis (FIG. 2b). Here, β-actin was used as an internal control group.
FIG. 2b is a Western blot analysis image showing a change in the phosphorylation level of ERK or Akt which is the protein involved in intracellular signaling according to whether the DPP-4 is treated in the eNOS-deficient mice treated with IGF-1.

[1] = system: aortic valve vascular smooth muscle tissue; experiment: ALP staining of aortic valve vascular smooth muscle tissue, osteocytogenesis level; format: in vivo, mice; conditions: wild-type or eNOS-deficient mice treated with DPP-4 and IGF-1 at the same time; FIG. 2a
Description: Wild-type mice or eNOS-deficient mice which are animal models with the aortic valve calcification were treated with insulin-like growth factor type 1 (IGF-1) alone or treated with dipeptidyl-peptidase 4 (DPP-4) and IGF-1 at the same time. Then, ALP staining was performed on the aortic valve vascular smooth muscle tissue, thereby comparing the […] level of tissue (FIG. 2a). Here, the aortic valve vascular smooth muscle tissue of the wild-type mice treated with nothing or the eNOS-deficient mice was used as a control group.
FIG. 2a are an image and a graph showing verification of the effect of DPP-4 on an action of IGF-1 inhibiting osteocytogenesis in the aortic valve vascular smooth muscle tissue of the wild-type mice or the eNOS-deficient mice.

B1: DPP-4: antigenic enzyme, membrane-bound glycoprotein, also referred to as CD26; cleaves two N-terminal peptides including proline (protein)
chain: NKGTDDATADSRKTYTLTDYLKNTYRLKLYSLRWISDHEYLYKQENNILVFNAEYGNSSVFLENSTFDEFGHSINDYSISPDGQFILLEYNYVKQWRHSYTASYDIYDLNKRQLITEERIPNNTQWVTWSPVGHKLAYVWNNDIYVKIEPNLPSYRITWTGKEDIIYNGITDWVYEEEVFSAYSALWWSPNGTFLAYAQFNDTEVPLIEYSFYSDESLQYPKTVRVPYPKAGAVNPTVKFFVVNTDSLSSVTNATSIQITAPASMLIGDHYLCDVTWATQERISLQWLRRIQNYSVMDICDYDESSGRWNCLVARQHIEMSTTGWVGRFRPSEPHFTLDGNSFYKIISNEEGYRHICYFQIDKKDCTFITKGTWEVIGIEALTSDYLYYISNEYKGMPGGRNLYKIQLSDYTKVTCLSCELNPERCQYYSVSFSKEAKYYQLRCSGPGLPLYTLHSSVNDKGLRVLEDNSALDKMLQNVQMPSKKLDFIILNETKFWYQMILPPHFDKSKKYPLLLDVYAGPCSQKADTVFRLNWATYLASTENIIVASFDGRGSGYQGDKIMHAINRRLGTFEVEDQIEAARQFSKMGFVDNKRIAIWGWSYGGYVTSMVLGSGSGVFKCGIAVAPVSRWEYYDSVYTERYMGLPTPEDNLDHYRNSTVMSRAENFKQVEYLLIHGTADDNVHFQQSAQISKALVDVGVDFQAMWYTDEDHGIASSTAHQHIYTHMSHFIKQCFSLP
phosphorylation level of ERK or Akt (ERK or Akt): reduced | osteocytogenesis of aortic valve vascular smooth muscle tissue (ALP staining) [1]: intensified
